This is an account of results in article PMC11734626.

This assay has as its target T7-tagged TanGIBLE (Tandem BAG6 domain I BUILD linked entity) (human) (UniProt P46379). Nature of the assay: co-IP.

“Flag-tagged IL-2 receptor α subunit without its signal sequence (Flag-IL-2Rα ΔSS) (domain or fragment)” displayed a fold co-precipitated against BAG6 N200, with MG-132 of 2.4 fold and a fold co-precipitated against BAG6 N200, without MG-132 of 5.6 fold.
